B1: PF0619 (conserved hypothetical protein) (natural protein)
chain: MLVPGRVYLFRIPEGKEIIEFLREFAEKENIKVGIISAIGTLRNPVIGYFMEEEKKYKEISLTGTYELLSLSGNISLKDGKPFVHAHVVLGDSEGRAFGGHLVRGEVFVAEVFVQELEGETLERKPTEHGLALW
B2: PF1372 (conserved hypothetical protein) (natural protein)
chain: MTEIRYYKIGEDRFKISEDEVARRELRVAKVSDDVIQIQEEVHGIIALVGATSSVNIKKEELKELVKLVREEFGWDI
B3: ferredoxin (PF1909, Fd) (natural protein)
chain: AWKVSVDQDTCIGDAICASLCPDVFEMNDEGKAQPKVEVIEDEELYNCAKEAMEACPVSAITIEEA
B4: acetyl-CoA synthetase subunit (PF1787) (natural protein)
chain: MDRVAKAREIIEKAKAENRPLVEPEAKEILKLYGIPVPEFKVARNEEEAVKFSGEIGYPVVMKIVSPQIIHKSDAGGVKINIKNDEEAREAFRTIMQNARNYKPDADLWGVIIYRMLPLGREVIVGMIRDPQFGPAVMFGLGGIFVEILKDVSFRVAPITKEDALEMIREIKAYPILAGARGEKPVNIEALADIIVKVGELALELPEIKEIDINPIFAYEDSAIAVDARMIL
B5: PF0939 (isopropylmalate dehydratase) (natural protein)
chain: MKARGRAWKYGDNIDTDVIIPARYLNTSDPKELAQHVLEDLDPEFRYKMKPGDIIVAGENFGCGSSREHAPLAIKAAGVSAVIAKSFARIFYRNAINIGLPILEAPEAVERIETGDEIEIDFSTGEIRNLTKGEVYHANPFPEFIMEIIKAGGLVEWAKRRLAK
B6: PF0259 (conserved hypothetical protein) (natural protein)
chain: MAVIIEFSLIPLGEVSVSKYIAEAIKLLEEKGVKYQLTPMGTIIEVGSVEEGLKIVGEAHELMFKLGVKRVVTHIKIDDRRDKERKMEDKVKSVIEKVKK
B7: superoxide reductase (PF1281, SOR) (enzyme)
chain: MISETIRSGDWKGEKHVPVIEYEREGELVKVKVQVGKEIPHPNTTEHHIRYIELYFLPEGENFVYQVGRVEFTAHGESVNGPNTSDVYTEPIAYFVLKTKKKGKLYALSYCNIHGLWENEVTLE
B8: PF0715 (NADH oxidase) (natural protein)
chain: MEFFEVLKKRRSIRRFQDKPVPRELIEKLLEAAFLSPSSYNKRPCHFIVVDDREKLEALSKSKLGASGLKTAPVAIVVTADESKSDVWIEDASIAAEHIHLASYALGLASFWVQIRNRMHNETKTAEEYVRELLNIPENYRVLCIIGVGYPAEDKPPHGNEVFEWEKVSYNEFGKRFK
B9: PF1291 (phosphoesterase) (natural protein)
chain: MVYVAVLANIAGNLPALTAALSRIEEMREEGYEIEKYYILGNIVGLFPYPKEVIEVIKDLTKKENVKIIRGKYDQIIAMSDPHATDPGYIDKLELPGHVKKALKFTWEKLGHEGREYLRDLPIYLVDKIGGNEVFGVYGSPINPFDGEVLAEQPTSYYEAIMRPVKDYEMLIVASPMYPVDAMTRYGRVVCPGSVGFPPGKEHKATFALVDVDTLKPKFIEVEYDKKIIEERIRAEGLPEEIIKILYHGGRP
B10: PF0230 (ArsR transcription regulator) (natural protein)
chain: MTKRVKVITDPEVIKVMLEDTRRKILQLLRNREMTISQLSEILGKMPQTIYHHIEKLKEAGLVEVKRTEMKGNLVEKYYGRTADVFYINLYMGDEELRYLARSRLKTKLDIFKKLGYKFDEEELLNVMDRILEKEHEVKVEISKEIENVEDSLKEFSNEDIIHAIEWLAMARLAQDEEYIELVKKLGQILKR
B11: PF1950 (phosphoribosyl transferase) (natural protein)
chain: MKKFPAYLASWEDIENWAKAGAWKVLESGWMPDVIVGLARGGWIAARLYCDYLGVKDLVSIKVEHWGVTATPDGRARLKYGAQYDFEGKKVLIVDDITDTGESMSLAYEYMKSRNPAEIRTATLLNIKGSKFVPDYYAKDIDWVWVVFPWNFVEDMINLTNNLFEEKDKLTTDEIISLFKELHGIEVPREKLEEALRMAEKRKIFKFENGFWTKV
B12: PF1911 (ferredoxin NADP reductase) (natural protein)
chain: MYKILEKKEIAMRNTWYKVYAPHVAKKVQPGQFVIVRAFPNGERIPLTPVMWDREEGWIVLIVFTRGKTTMRMAVELKEGDSLLNVAGPLGTPVPMEKFGKILAIGAYTGIVEVYPIAKAWQEIGNDVTTLHVTFEPMVILKEELEKAVTRHIVEPVPLNPNQDFLANMKNVSQRLKEKVRELLESEDWDLVFMVGPVGDQKQVFEVVKEYGVPMKVDLHPIMVDGTGMCGACRVTVGGEVKFACVDGPEFDAYQVDWDELIHRVGFYAKLEKLALEKYMEELKAKGVI
B13: PF0380 (conserved hypothetical protein) (natural protein)
chain: MGVEKVPKYDIPVKKVEYVFIELDKMKPHEQLVQRELEDFIESVTGSGIFWKPMLLAKIPGTDEYLIVDGHHRWAGLQKLGAKRAPSVILDYFDEGVKVYTWYPAFKGDVNKVIERLKAEGLEVIEDEKAEEKAEKGEIAFALIGEKSFAIPGGLEEQKKVSKVLDEMDQAKEIELVYYGLKEDAKADMEKGEIDYVFIRKAPTKEEVMELVKRGEVFSPKTTRHVLPFIPDKIDVKLEDLF
B14: PF1033 (thioredoxin-like fold) (natural protein)
chain: MIVIGEKFPEVEVKTTHGVIKLPDHFTKQGKWFMLFSHPADFTPVCTTEFYGLQIRLEKFRELGVEPIGLSVDQVFSHLKWMEWIKEKLGVEIEFPVIADDRGDLAEKLGMIPSGSTITARAVFIVDDKGIIRAIVYYPAEVGRDWDEILRLVKALKISTEKGVALPHKWPNNELIGDKVIVPPASSVEQIKEREEAKAKGEIECYDWWFCYKKLE
B15: PF0094 (glutaredoxin-like) (natural protein)
chain: MGLISDADKKVIKEEFFSKMVNPVKLIVFVRKDHCQYCDQLKQLVQELSELTDKLSYEIVDFDTPEGKELAKRYRIDRAPATTITQDGKDFGVRYFGLPAGHEFAAFLEDIVDVSREETNLMDETKQAIRNIDQDVRILVFVTPTCPYCPLAVRMAHKFAIENTKAGKGKILGDMVEAIEYPEWADQYNVMAVPKIVIQVNGEDRVEFEGAYPEKMFLEKLLSALS
B16: PF0014/0015 complex (complex)
chain 1: MEEKKPVNLVLPEVENAIFIEGYPGVGLVGHIAANFLAKELDMDLIGYVDSLFIPPMSLILEGRPTPPLRFYGKNNIIIAIADIFLPPTLVNEIAKEIVNYLKKVNAEKVISLAGMGIGFFKDTFEVWGIGGSEEENKELESLGVKILKYGSITGMSGKLLWEASRAGLKSYVLLGETFGDRPDPRAAANVVEVLNKMLGLNVSVEPLLKEAEMIEEQLRRMHEQMEEARRKMERQYETMYL
chain 2: MVVEIPLLSGIARRTLDALMRNPIRTVEIRNARNYMTLEKVKEGDLVFLTYESLEDVMRGTEGIIAMVTRMEKSHQRVPWEESDEREISICRVQLKLVGLGRVVEVQEKNGVVFVKVREMLHHEISMG

Several values for one entry are separate records, joined by “and”; a condition that tells them apart may be missing. Identical values can stand only once. Some results are limits rather than exact numbers.

The first data set deals with the molecule itself. Description: SAXS.
As for B1, the “stoichiometry N” value was 3.

Turning to B2, the “stoichiometry N” value is 4.

In the case of B3, the “percent of the sample as 2-mer” value stood at 40% and the “stoichiometry N” value worked out at 2.

On to B4, for which the “stoichiometry N” value turned out to be 3.

B5: the “stoichiometry N” value amounted to 2.

As to B6, the “stoichiometry N” value is 8.

On to B7, for which the “stoichiometry N” value was 4.

Turning to B8, the “stoichiometry N” value is 2.

Take B9: the “stoichiometry N” value was found to be 4.

Turning to B10, the “stoichiometry N” value was 2.

As to B11, the “stoichiometry N” value stood at 2.

As to B12, the “stoichiometry N” value came to 2.

Take B13: the “percent of the sample as 2-mer” value turned out to be 68% and the “stoichiometry N” value amounted to 2.

Consider B14, for which the “stoichiometry N” value turned out to be 10.

For the protein B15, the “percent of the sample as 2-mer” value is 92%; the “stoichiometry N” value is 4 and 2.

A further data set concerns the molecule itself. Kind of data set: SAXS. The source holds these as a separate data set.
For the protein B16, the “stoichiometry N” value was above 8.

These data come from paper PMC3094553 (Nature methods, 2009).
